Assay results: the supplement of paper PMC10567573

B1: C1orf137 (parent)
chain: RQHHHQSSFPGSLPQETNLTLKVC

Variants of: B1
Experiment: protein stability index of a GFP-peptide fusion (GPS, HEK-293T) (PSI 1-6); higher = more stable
Conditions: c terminus: a fixed tail appended
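Also: lentivirally expressed fusions sorted by FACS into six bins by GFP to DsRed ratio, PSI derived from sequencing read proportions per bin multiplied by bin number.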

Protein stability index of substitutions, site by site:
P14: N 2.54, T 2.71, L 2.29, V 2.55, M 2.02, W 1.62, C 2.85, S 2.72, I 2.24, A 3.15, G 3.18, F 2, E 3.17, R 2.4, Q 3.44
T17: E 3.95, G 3.28, N 3.15, I 1.17, Q 3.24, W 1.41, H 2.39, F 2.49, R 3.28, C 2.46, K 3.54, D 3.89, S 3.02, P 2.98, L 1.57, M 2.44
G11: L 2.72, Y 1.95, K 3.79, R 2.44, Q 3.07, H 2.98, E 4.03, C 2.61, T 2.66, M 3.24, D 2.25, S 2.9, I 2.85, F 2.28, P 2.53
V23: S 3.73, I 2.46, K 2.97, M 3.33, Q 4.5, R 3.83, W 2.86, H 4.2, L 3.03, P 3.79, G 4.43, D 4.72, E 4.27
S8: F 1.84, P 2.71, H 2.45, Q 2.9, R 2.57, Y 2.02, K 3.07, M 2.68, A 2.81, G 2.47, E 3.85, N 3.08, D 2.89, I 3.03, C 2.67, W 2
L13: T 3.51, I 3.2, F 2.78, S 3.57, C 2.79, V 3.65, M 3.29, Y 2.66, E 3.23, D 4, H 3.21, K 3.16
L19: D 4.63, M 3.16, W 4.19, Y 2.95, I 3.39, S 3.55, A 4.07, F 2.47, H 4.14, C 3.32, T 3.96, P 3.31, K 3.99
Q2: K 2.31, M 2.88, H 2.27, I 2.28, F 3.96, C 2.04, R 3.04, Y 2.63, V 2.47, A 2.67
R1: A 2.7, M 2.87, G 3.69, S 3.4, F 1.63, K 2.88, V 3.05, L 2.44, W 3.5, Q 3.44, P 2.79, T 3.12, N 2.7, E 3.58
K22: M 2.28, Y 2.28, F 2.14, A 2.57, R 2.28, S 3.34, C 1.75, T 2.43, I 2.49, D 3.5, N 2.92, L 1.94, Q 2.92, E 3.44, G 3.42
T20: F 2.09, L 2.32, I 2.13, G 3.23, E 3.61, A 3, S 3.29, N 3.16, D 4.1, M 2.63, V 2.42
F9: G 4.03, C 3.16, V 3.46, N 3.88, Y 3.41, L 3.53, W 3.27, M 3.18, S 3.16, A 3.97, R 3.7, I 3.3
H4: V 2.82, T 3.36, P 3.19, D 3.56, G 3.52, E 3.15, K 3.26, A 2.94, R 1.94, I 2.34, F 2.74, Q 3.9, M 2.37, L 3.13, C 2.87, Y 2.89
H3: R 2.88, K 3.31, V 3.09, L 2.34, T 3.13, N 2.75, Y 2.57, F 2.04, S 3.36, G 3.11, A 2.84, D 2.87, M 3.25, Q 3.06
H5: W 2.27, N 2.91, K 2.34, V 3.23, P 2.9, Y 2.85, L 2.73, C 3.25, R 3.64, Q 2.65, M 2.63, I 2.66, G 2.81, D 3.36
L21: C 3.97, Y 3.96, W 3.08, H 3.76, N 4.32, K 3.79, F 2.88, I 2.41, R 3.95, V 3.23, E 4.5, S 4.02
N18: T 2, K 2.89, V 2.46, R 2.29, Y 2.08, S 2.65, I 2, A 2.76, P 3.17, M 2.51, C 1.96, L 2.2, E 2.77, H 1.84, G 3.65, D 3.83, F 2.55
S12: G 2.96, N 2.99, R 3.17, E 3.46, T 2.99, W 2.44, Y 2.27, F 2.41, L 2.66, P 2.82, I 2.41, V 3.38, H 2.38, K 2.98, D 3.19, C 2.37
C24: E 4.19, K 4.11, T 3.37, L 3.74, Y 2.22, I 1.9, F 1.9, V 2.29, N 3.7, R 4.68, W 2.9, D 4.36, S 3.41, H 3.37, G 3.75
Q15: Y 2.28, D 3.26, T 3.34, N 2.47, S 3.36, F 1.71, R 2.54, M 2.29, P 3.05, W 2.29, H 2.51, E 3.65
S7: K 3.11, G 3.18, A 2.71, H 2.83, E 2.3, N 3.68, W 2.43, I 2.77, T 3.34, P 3.52, F 2.36, C 2.43
P10: S 3.46, V 2.65, F 2.27, C 2.38, L 2.25, Y 2.4, N 2.69, A 3.24, H 2.77, T 3.25, Q 3.06
Q6: T 2.49, Y 2.9, S 3.25, M 2.23, R 4.03, C 1.72, N 2.71, V 2.89, K 3.15, I 2.37, F 2.3, G 3.22, P 2.55, D 3.39, E 2.88, H 3.36
E16: H 2.87, W 1.55, Q 2.57, M 2.48, L 1.7, N 2.8, A 2.33, R 2.34, I 1.75, F 2.28, D 3.63, G 2.39, K 2.57, S 2.63, V 1.57, T 2.69, C 1.47
